Positions count from the first letter of the chain named. Names may count otherwise.
T1: PUF4 RNA-binding domain (Saccharomyces cerevisiae, UniProt P25339 537-888)
T1 sequence: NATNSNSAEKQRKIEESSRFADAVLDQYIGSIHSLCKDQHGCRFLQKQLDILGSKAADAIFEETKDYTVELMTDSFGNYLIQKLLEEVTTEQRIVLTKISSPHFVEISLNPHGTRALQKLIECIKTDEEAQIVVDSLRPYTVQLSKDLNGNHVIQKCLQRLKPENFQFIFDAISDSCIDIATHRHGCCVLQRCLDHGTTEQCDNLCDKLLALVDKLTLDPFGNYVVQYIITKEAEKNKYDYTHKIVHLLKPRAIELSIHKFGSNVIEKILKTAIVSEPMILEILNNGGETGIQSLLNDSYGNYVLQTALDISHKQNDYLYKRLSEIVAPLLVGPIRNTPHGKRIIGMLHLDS

B1: Ib_S2_P3E.1_K3.1_C3.1_H3.1_[G2C]_A3.1_[A6G]_F3.1_T3.1 (ssRNA)
RNA: UUUGAUUAAUAUGAUAUCGUUCUUUCUUCUAUGUAUUCUUUCUCGAUAUCAUAUUAAUCUUU
B2: Ib_S2_P3E.1_K3.1_C3.1_H3.1_[G2T]_A3.1_[A6G]_F3.1_T3.1 (ssRNA)
RNA: B1 RNA with C29U
B3: Ib_S2_P3E.1_K3.1_C3.1_H3.1_[A4G]_A3.1_[T5C]_F3.1_T3.1 (ssRNA)
RNA: B1 RNA with C29G, A31G, U32C, G33A
B4: Ib_S2_P3E.1_K3.1_C3.1_H3.1_[G2A]_A3.1_[A6G]_F3.1_T3.1 (ssRNA)
RNA: B1 RNA with C29A
B5: Ib_S2_P3E.1_K3.1_C3.1_H3.1_[G2C]_A3.1_[A6C]_F3.1_T3.1 (ssRNA)
RNA: B1 RNA with G33C
B6: Ie_S4_P4E.1_K4.1_C4.1_H4.1_[+1CTCTC]_A4.1_F4.1_T4.1 (ssRNA)
RNA: UUUGACAACUGAUCGUUCUUUCUUCUCUCGUAUAUUAUUCUUUCUCGAUCAGUUGUCUUU
B7: Ie_S4_P4E.1_K4.1_C4.1_H4.1_[+4CTCTC]_A4.1_F4.1_T4.1 (ssRNA)
RNA: B6 RNA with C25G, C27A, U28C, C29U, G30C, A32C
B8: Ie_S4_P4E.1_K4.1_C4.1_H4.1_A4.1_[+5CCTCT]_F4.1_T4.1 (ssRNA)
RNA: B6 RNA with C25G, C27A, G30C, A32C
B9: Ie_S4_P4E.1_K4.1_C4.1_H4.1_[+3TTCCT]_A4.1_F4.1_T4.1 (ssRNA)
RNA: B6 RNA with C25G, C27U, G30C
B10: Ie_S4_P5E.1_K5.1_C5.1_H5.1_A5.1_[+5TTCC]_F5.1_T5.1 (ssRNA)
RNA: B6 RNA with C25G, C27A, C29U, G30U, U31C, A32C
B11: Ie_S4_P4E.1_K4.1_C4.1_H4.1_A4.1_[+5CTCTC]_F4.1_T4.1 (ssRNA)
RNA: B6 RNA with C25G, C27A, G30U, U31C, A32U, U33C
B12: Ie_S4_P4E.1_K4.1_C4.1_H4.1_[+2CCTCT]_A4.1_F4.1_T4.1 (ssRNA)
RNA: B6 RNA with C25G, U26C, G30U
B13: Ie_S4_P4E.1_K4.1_C4.1_H4.1_[+3CCCTT]_A4.1_F4.1_T4.1 (ssRNA)
RNA: B6 RNA with C25G, U28C, G30U
B14: Ie_S4_P5E.1_K5.1_C5.1_H5.1_A5.1_[+5TCTC]_F5.1_T5.1 (ssRNA)
RNA: B6 RNA with C25G, C27A, C29U, G30C, A32C
B15: Ie_S4_P4E.1_K4.1_C4.1_H4.1_[+2CCTC]_A4.1_F4.1_T4.1 (ssRNA)
RNA: UUUGACAACUGAUCGUUCUUUCUUGCCUCUAUAUUAUUCUUUCUCGAUCAGUUGUCUUU
B16: Ie_S4_P4E.1_K4.1_C4.1_H4.1_[+2TTCC]_A4.1_F4.1_T4.1 (ssRNA)
RNA: B15 RNA with C26U, C27U, U28C
B17: Ie_S4_P4E.1_K4.1_C4.1_H4.1_[+4TCTC]_A4.1_F4.1_T4.1 (ssRNA)
RNA: B15 RNA with C26U, C27A, A31C
B18: Ie_S4_P4E.1_K4.1_C4.1_H4.1_A4.1_[+5CCTC]_F4.1_T4.1 (ssRNA)
RNA: B15 RNA with C26U, C27A, U30C, A31U, U32C
B19: Ie_S4_P4E.1_K4.1_C4.1_H4.1_A4.1_[+6CCCT]_F4.1_T4.1 (ssRNA)
RNA: B15 RNA with C26U, C27A, C29A, U30C, A31C, U32C, A33U
B20: Ie_S4_P4E.1_K4.1_C4.1_H4.1_A4.1_[+5TTCC]_F4.1_T4.1 (ssRNA)
RNA: B15 RNA with C26U, C27A, C29U, A31C, U32C
B21: Ie_S4_P4E.1_K4.1_C4.1_H4.1_A4.1_[+6CTCT]_F4.1_T4.1 (ssRNA)
RNA: B15 RNA with C26U, C27A, C29A, U30C, A31U, U32C, A33U
B22: Ie_S4_P5E.1_K5.1_C5.1_H5.1_A5.1_[+5CCC]_F5.1_T5.1 (ssRNA)
RNA: B15 RNA with C26U, C27A, U30C, A31C
B23: Ie_S4_P4E.1_K4.1_C4.1_H4.1_A4.1_[+6TCTC]_F4.1_T4.1 (ssRNA)
RNA: B15 RNA with C26U, C27A, C29A, A31C, A33C
B24: Ie_S4_P4E.1_K4.1_C4.1_H4.1_[+3CCTC]_A4.1_F4.1_T4.1 (ssRNA)
RNA: B15 RNA with C26U, U28C, C29U, U30C
B25: Ie_S4_P4E.1_K4.1_C4.1_H4.1_A4.1_[+5TCTC]_F4.1_T4.1 (ssRNA)
RNA: B15 RNA with C26U, C27A, C29U, U30C, A31U, U32C
B26: Ie_S4_P4E.1_K4.1_C4.1_H4.1_[+2CTC]_A4.1_F4.1_T4.1 (ssRNA)
RNA: UUUGACAACUGAUCGUUCUUUCUUGCUCUAUAUUAUUCUUUCUCGAUCAGUUGUCUUU
B27: Ie_S4_P4E.1_K4.1_C4.1_H4.1_[+3TTT]_A4.1_F4.1_T4.1 (ssRNA)
RNA: B26 RNA with C26U, C28U
B28: Ie_S4_P4E.1_K4.1_C4.1_H4.1_[+3CCC]_A4.1_F4.1_T4.1 (ssRNA)
RNA: B26 RNA with C26U, U27C, U29C
B29: Ie_S4_P4E.1_K4.1_C4.1_H4.1_A4.1_[+5TTC]_F4.1_T4.1 (ssRNA)
RNA: B26 RNA with C26U, U27A, C28U, A30U, U31C
B30: Ie_S4_P5E.1_K5.1_C5.1_H5.1_A5.1_[+5CC]_F5.1_T5.1 (ssRNA)
RNA: B26 RNA with C26U, U27A, C28U, U29C, A30C
B31: Ie_S4_P4E.1_K4.1_C4.1_H4.1_A4.1_[+6TCT]_F4.1_T4.1 (ssRNA)
RNA: B26 RNA with C26U, U27A, C28U, U29A, A30U, U31C, A32U
B32: Ie_S4_P4E.1_K4.1_C4.1_H4.1_[+3TCC]_A4.1_F4.1_T4.1 (ssRNA)
RNA: B26 RNA with C26U, U29C
B33: Ie_S4_P4E.1_K4.1_C4.1_H4.1_A4.1_[+6TTT]_F4.1_T4.1 (ssRNA)
RNA: B26 RNA with C26U, U27A, C28U, U29A, A30U, A32U
B34: Ie_S4_P5E.1_K5.1_C5.1_H5.1_A5.1_[+6CT]_F5.1_T5.1 (ssRNA)
RNA: B26 RNA with C26U, U27A, C28U, A30C
B35: Ie_S4_P4E.1_K4.1_C4.1_H4.1_[+2TCC]_A4.1_F4.1_T4.1 (ssRNA)
RNA: B26 RNA with C26U, U27C
B36: Ie_S4_P4E.1_K4.1_C4.1_H4.1_[+4CTC]_A4.1_F4.1_T4.1 (ssRNA)
RNA: B26 RNA with C26U, U27A, A30C
B37: Ie_S4_P4E.1_K4.1_C4.1_H4.1_A4.1_[+6CTC]_F4.1_T4.1 (ssRNA)
RNA: B26 RNA with C26U, U27A, C28U, U29A, A30C, A32C
B38: Ie_S4_P4E.1_K4.1_C4.1_H4.1_A4.1_[+5TCC]_F4.1_T4.1 (ssRNA)
RNA: B26 RNA with C26U, U27A, C28U, A30C, U31C
B39: Ie_S4_P4E.1_K4.1_C4.1_H4.1_A4.1_[+5TTT]_F4.1_T4.1 (ssRNA)
RNA: B26 RNA with C26U, U27A, C28U, A30U
B40: Ie_S4_P4E.1_K4.1_C4.1_H4.1_A4.1_[+6CCT]_F4.1_T4.1 (ssRNA)
RNA: B26 RNA with C26U, U27A, C28U, U29A, A30C, U31C, A32U
B41: Ie_S4_P4E.1_K4.1_C4.1_H4.1_[+3TCT]_A4.1_F4.1_T4.1 (ssRNA)
RNA: B26 RNA with C26U
B42: Ie_S4_P4E.1_K4.1_C4.1_H4.1_A4.1_[+7CTC]_F4.1_T4.1 (ssRNA)
RNA: UUUGACAACUGAUCGUUCUUUCUUGUAUAUCUCUAUUCUUUCUCGAUCAGUUGUCUUU
B43: Ie_S4_P4E.1_K4.1_C4.1_H4.1_[+2TT]_A4.1_F4.1_T4.1 (ssRNA)
RNA: UUUGACAACUGAUCGUUCUUUCUUGUUUAUAUUAUUCUUUCUCGAUCAGUUGUCUUU
B44: Ie_S4_P4E.1_K4.1_C4.1_H4.1_[+4CT]_A4.1_F4.1_T4.1 (ssRNA)
RNA: B43 RNA with U27A, U28C, A29U
B45: Ie_S4_P4E.1_K4.1_C4.1_H4.1_[+4TC]_A4.1_F4.1_T4.1 (ssRNA)
RNA: B43 RNA with U27A, A29C
B46: Ie_S4_P4E.1_K4.1_C4.1_H4.1_[+3CT]_A4.1_F4.1_T4.1 (ssRNA)
RNA: B43 RNA with U27C
B47: Ie_S4_P4E.1_K4.1_C4.1_H4.1_A4.1_[+6TC]_F4.1_T4.1 (ssRNA)
RNA: B43 RNA with U27A, A31C
B48: Ie_S4_P4E.1_K4.1_C4.1_H4.1_A4.1_[+5CC]_F4.1_T4.1 (ssRNA)
RNA: B43 RNA with U27A, A29C, U30C
B49: Ie_S4_P4E.1_K4.1_C4.1_H4.1_[+2C]_A4.1_F4.1_T4.1 (ssRNA)
RNA: UUUGACAACUGAUCGUUCUUUCUUGCUAUAUUAUUCUUUCUCGAUCAGUUGUCUUU
B50: Ie_S4_P4E.1_K4.1_C4.1_H4.1_[+4T]_A4.1_F4.1_T4.1 (ssRNA)
RNA: B49 RNA with C26U, U27A, A28U
B51: Ie_S4_P4E.1_K4.1_C4.1_H4.1_A4.1_[+7C]_F4.1_T4.1 (ssRNA)
RNA: B49 RNA with C26U, U27A, A28U, U29A, A30U, U31C

Each binder was assayed against T1, PUF4 RNA-binding domain (assay: Mg; RNA-MaP; 20 mM Na-HEPES pH 7.4, 30 mM KOAc, 0.75 mM MgCl2, 0.1% Tween-20, 5% glycerol, 0.1 mg/mL BSA, 2 mM DTT; 25 C; 0.0125-409.6 nM protein). Details: tags: N-His6-TEV cleaved; C-SNAP kept, Cy3B-labelled; label: tethered on chip by stalled RNA polymerase.

| Binder | Kd [nM] |
| --- | --- |
| B1 | 87.4 |
| B2 | 189 |
| B3 | 24.6 |
| B4 | 76.2 |
| B5 | > 2300 |
| B6 | 5.7 |
| B7 | 6.67 |
| B8 | 10 |
| B9 | 22.7 |
| B10 | 9.15 |
| B11 | 42.8 |
| B12 | 118 |
| B13 | 51.6 |
| B14 | 9.69 |
| B15 | 105 |
| B16 | 23.9 |
| B17 | 4.78 |
| B18 | 43.3 |
| B19 | 22.2 |
| B20 | 54 |
| B21 | 12 |
| B22 | 7.89 |
| B23 | 15.4 |
| B24 | 66.1 |
| B25 | 35.8 |
| B26 | 108 |

| Binder | Kd [nM] |
| --- | --- |
| B27 | 12.7 |
| B28 | 15 |
| B29 | 31.3 |
| B30 | 3.27 |
| B31 | 8.73 |
| B32 | 7.68 |
| B33 | 4.94 |
| B34 | 2.21 |
| B35 | 8.71 |
| B36 | 1.44 |
| B37 | 10.3 |
| B38 | 34.1 |
| B39 | 1.72 |
| B40 | 11.2 |
| B41 | 6.36 |
| B42 | 10.3 |
| B43 | 16.8 |
| B44 | 4.23 |
| B45 | 6.67 |
| B46 | 31.2 |
| B47 | 4.82 |
| B48 | 13.5 |
| B49 | 148 |
| B50 | 4.34 |
| B51 | 1.92 |
